Data taken from paper PMC6238592.

Target: human FACT (FAcilitates Chromatin Transcription), full length (human) (UniProt Q9Y5B9)
Assay: AUC; SV-AUC, absorbance optics; 1.8 μM FACT incubated with histones at the indicated molar ratios for 10 min at room temperature; 150 mM NaCl, 20 mM Tris pH 8.0, 1 mM TCEP; 20°C

stoichiometry N (H2A–H2B per FACT): 1
Substance: histone H2A–H2B dimer (no label stated) (from UniProt P06897 1-130; P02281 1-126) (complex)
